Results on twelve molecules are retold here after patent US20230398217A1 (published 2023).

The target of assay [1] is T1, HA-1 (HMHA1, also known as ARHGAP45; R139H polymorphism, genotype RS_1801284 A/G or A/A) peptide on … (human).
T1 peptide: VLHDDLLEA
Put plainly: multimer staining.

The target in assay [2] is T2, CCDC114 peptide on HLA-A*02:01 (human).
T2 peptide: SMIDDLLGV
The assay can be described thus: activation reporter or marker.

Assay [3] addresses T1, HA-1 (HMHA1, also known as ARHGAP45; …). The assay can be described thus: killing.

B1: HA1-10-34 (TCR, V domains shown)
Valpha: GENVEQHPSTLSVQEGDSAVIKCTYSDSASNYFPWYKQELGKRPQLIIDIRSNVGEKKDQRIAVTLNKTAKHFSLHITETQPEDSAVYFCAARGPGTYKYIFGTGTRLKVLA
Vbeta: DTGVSQDPRHKITKRGQNVTFRCDPISEHNRLYWYRQTLGQGPEFLTYFQNEAQLEKSRLLSDRFSAERPKGSFSTLEIQRTEQGDSAMYLCASVAGTVYNEQFFGPGTRLTVL
Consider B1, for which the binding result in assay [1] is “recognises”.

B2: HA1-6-2 (TCR, V domains shown)
Valpha: AQTVTQSQPEMSVQEAETVTLSCTYDTSESNYYLFWYKQPPSRQMILVIRQEAYKQQNATENRFSVNFQKAAKSFSLKISDSQLGDTAMYFCALYSGAGSYQLTFGKGTKLSVIP
Vbeta: DTGVSQDPRHKITKRGQNVTFRCDPISEHNRLYWYRQTLGQGPEFLTYFQNEAQLEKSRLLSDRFSAERPKGSFSTLEIQRTEQGDSAMYLCASFELAGGYEQFFGPGTRLTVL
Regarding B2, in assay [1], the binding result is “recognises”.

B3: HA1-TSC-100 (TCR, V domains shown)
Valpha: KQEVTQIPAALSVPEGENLVLNCSFTDSAIYNLQWFRQDPGKGLTSLLLIQSSQREQTSGRLNASLDKSSGRSTLYIAASQPGDSATYLCAVRGGTSGTYKYIFGTGTRLKVLA
Vbeta: DTGVSQDPRHKITKRGQNVTFRCDPISEHNRLYWYRQTLGQGPEFLTYFQNEAQLEKSRLLSDRFSAERPKGSFSTLEIQRTEQGDSAMYLCASSRTAGDTQYFGPGTRLTVL
B3: the values for the binding result in assay [2] and in assay [1] were “no recognition” and “recognises”, respectively.

B4: HA1-10-93 (TCR, V domains shown)
Valpha: GENVEQHPSTLSVQEGDSAVIKCTYSDSASNYFPWYKQELGKRPQLIIDIRSNVGEKKDQRIAVTLNKTAKHFSLHITETQPEDSAVYFCPIRQFYFGTGTSLTVIP
Vbeta: DTGVSQDPRHKITKRGQNVTFRCDPISEHNRLYWYRQTLGQGPEFLTYFQNEAQLEKSRLLSDRFSAERPKGSFSTLEIQRTEQGDSAMYLCASSLVVVDTQYFGPGTRLTVL
As to B4, the binding result in assay [1] is recorded as “recognises”.

B5: HA1-Fred Hutch (TCR, V domains shown)
Valpha: KQEVTQIPAALSVPEGENLVLNCSFTDSAIYNLQWFRQDPGKGLTSLLLIQSSQREQTSGRLNASLDKSSGRSTLYIAASQPGDSATYLCAVIGLGGTYKYIFGTGTRLKVLA
Vbeta: DTGVSQDPRHKITKRGQNVTFRCDPISEHNRLYWYRQTLGQGPEFLTYFQNEAQLEKSRLLSDRFSAERPKGSFSTLEIQRTEQGDSAMYLCASSLVKGEKLFFGSGTQLSVL
As for B5, the binding result in assay [2] and in assay [3] was “recognises” each time.

B6: HA1-2-21 (TCR, V domains shown)
Valpha: GQQVMQIPQYQHVQEGEDFTTYCNSSTTLSNIQWYKQRPGGHPVFLIQLVKSGEVKKQKRLTFQFGEAKKNSSLHITATQTTDVGTYFCAGPSGNTPLVFGKGTRLSVIA
Vbeta: DTGVSQDPRHKITKRGQNVTFRCDPISEHNRLYWYRQTLGQGPEFLTYFQNEAQLEKSRLLSDRFSAERPKGSFSTLEIQRTEQGDSAMYLCASSLLTTNEQFFGPGTRLTVL
Regarding B6, the binding result in assay [1] is “recognises”.

B7: HA1-9-46 (TCR, V domains shown)
Valpha: GENVEQHPSTLSVQEGDSAVIKCTYSDSASNYFPWYKQELGKRPQLIIDIRSNVGEKKDQRIAVTLNKTAKHFSLHITETQPEDSAVYFCAASIMRFGAGTRLTVKP
Vbeta: DTGVSQNPRHKITKRGQNVTFRCDPISEHNRLYWYRQTLGQGPEFLTYFQNEAQLEKSRLLSDRFSAERPKGSFSTLEIQRTEQGDSAMYLCASSLSVVDEQFFGPGTRLTVL
Consider B7, for which, in assay [1], the binding result is “recognises”.

B8: HA1-2-23 (TCR, V domains shown)
Valpha: KQEVTQIPAALSVPEGENLVLNCSFTDSAIYNLQWFRQDPGKGLTSLLLIQSSQREQTSGRLNASLDKSSGRSTLYIAASQPGDSATYLCAVRPTTSGTYKYIFGTGTRLKVLA
Vbeta: DTGVSQDPRHKITKRGQNVTFRCDPISEHNRLYWYRQTLGQGPEFLTYFQNEAQLEKSRLLSDRFSAERPKGSFSTLEIQRTEQGDSAMYLCASILVGGTEAFFGQGTRLTVV
Turning to B8, the binding result in assay [1] is reported as “recognises”.

B9: HA1-10-26 (TCR, V domains shown)
Valpha: GENVEQHPSTLSVQEGDSAVIKCTYSDSASNYFPWYKQELGKRPQLIIDIRSNVGEKKDQRIAVTLNKTAKHFSLHITETQPEDSAVYFCAASGLGSGAGSYQLTFGKGTKLSVIP
Vbeta: DTGVSQDPRHKITKRGQNVTFRCDPISEHNRLYWYRQTLGQGPEFLTYFQNEAQLEKSRLLSDRFSAERPKGSFSTLEIQRTEQGDSAMYLCASSLLAGEKLFFGSGTQLSVL
Turning to B9, the binding result in assay [1] was “recognises”.

B10: HA1-9-105 (TCR, V domains shown)
Valpha: GENVEQHPSTLSVQEGDSAVIKCTYSDSASNYFPWYKQELGKRPQLIIDIRSNVGEKKDQRIAVTLNKTAKHFSLHITETQPEDSAVYFCAVGQNFVFGPGTRLSVLP
Vbeta: DTGVSQDPRHKITKRGQNVTFRCDPISEHNRLYWYRQTLGQGPEFLTYFQNEAQLEKSRLLSDRFSAERPKGSFSTLEIQRTEQGDSAMYLCASSPTTINEAFFGQGTRLTVV
Regarding B10, the binding result in assay [1] is on record as “recognises”.

B11: HA1-1-12 (TCR, V domains shown)
Valpha: EDQVTQSPEALRLQEGESSSLNCSYTVSGLRGLFWYRQDPGKGPEFLFTLYSAGEEKEKERLKATLTKKESFLHITAPKPEDSATYLCAVHLNAGGTSYGKLTFGQGTILTVHP
Vbeta: DAGVTQSPTHLIKTRGQHVTLRCSPISGHKSVSWYQQVLGQGPQFIFQYYEKEERGRGNFPDRFSARQFPNYSSELNVNALLLGDSALYLCASSFDRGTNGYTFGSGTRLTVV
For the molecule B11, the binding result in assay [1] is given as “recognises”.

B12: HA1-10-104 (TCR, V domains shown)
Valpha: AQSVTQPDIHITVSEGASLELRCNYSYGATPYLFWYVQSPGQGLQLLLKYFSGDTLVQGIKGFEAEFKRSQSSFNLRKPSVHWSDAAEYFCAVANAGGTSYGKLTFGQGTILTVHP
Vbeta: NAGVTQTPKFRVLKTGQSMTLLCAQDMNHEYMYWYRQDPGMGLRLIHYSVGEGTTAKGEVPDGYNVSRLKKQNFLLGLESAAPSQTSVYFCASGRSGTKFFGPGTRLTVL
In the case of B12, the binding result in assay [1] is listed as “recognises”.
